{"source": "paper PMC4906244", "tested_on": "His6-ComPsub (Neisseria subflava NJ9703), PDB:2NBA_1", "experiment": "SPR", "conditions": "DNA immobilized on neutravidin chip; EMSA: 20 mM Tris-Cl pH 8, 50 mM NaCl, 2.5 mM Mg2+, ambient temperature; SPR: 20 mM Tris pH 8, 150 mM NaCl, 0.05% Tween 20, 25 C; NMR: 50 mM sodium phosphate pH …"}
{"sequence": "TGACCAGGCCGTCTGAACAAAC (double strand) [DUSvar1 ds primer (biotinylated)]", "values": [{"measurement": "Kd", "value": 52.7, "unit": "µM"}]}
